Assays:
[1] = target: VFP (vivid Verde fluorescent protein) (Cyphastrea microphthalma); test: SEC
[2] = target: dVFP (VFP T160A) (Cyphastrea microphthalma); test: SEC

stoichiometry N [1] | stoichiometry N [2] | Substance
2 | – | VFP (vivid Verde fluorescent protein) (natural protein)
– | 2 | dVFP (VFP T160A) (natural protein)

Reference: PMC2855763
